Measurements taken from patent publication US20260232830A1 (JIANGSU HENGRUI PHARMACEUTICALS, published 2026).

Assays:
[1] = target: T1, human MUC1-C on stably transfected cells (human, UniProt P15941 961-1255, limits assumed); experiment: FACS, HCC827-human-MUC1-C, Test 1
T1 construct: domain: MUC1-C; the cell line of each value is named under assay; also called HCC827-human-MUC1-C cells; CHOK1-human-MUC1-C cells

[2] = target: T2, human MUC1 as expressed on tumour cell lines (T47D, HCC827, HPAC) (human, UniProt P15941 24-1255); experiment: FACS, HPAC
T2 construct: whole, on cells; the cell line is named under assay; also called T47D cells; HCC827 cells

[3] = target: T2, human MUC1 as expressed on tumour cell …; experiment: FACS, T47D
[4] = target: T2, human MUC1 as expressed on tumour cell …; experiment: FACS, HCC827
[5] = target: T1, human MUC1-C on stably transfected cells; experiment: FACS, HCC827-human-MUC1-C, Test 2
[6] = target: T1, human MUC1-C on stably transfected cells; experiment: FACS, HCC827-human-MUC1-C
[7] = target: T1, human MUC1-C on stably transfected cells; experiment: FACS, CHOK1-human-MUC1-C
[8] = target: T1, human MUC1-C on stably transfected cells; experiment: FACS, HCC827-human-MUC1-C, Test 2; remark: listed apart in the source
[9] = target: T1, human MUC1-C on stably transfected cells; experiment: FACS, CHOK1-human-MUC1-C; remark: listed apart in the source

B1: M4-H1L2 (antibody, human IgG1, kappa)
heavy: not shown
light: DIVMTQSPSSLSASVGDRVTITCSASSSVFNMNWYQQKPGKSPKLWIYDISKLASGVPSRFSGSGSGTDFTLTISSLQPEDFATYYCQQRSFYPPTFGGGTKVEIKRTVAAPSVFIFPPSDEQLKSGTASVVCLLNNFYPREAKVQWKVDNALQSGNSQESVTEQDSKDSTYSLSSTLTLSKADYEKHKVYACEVTHQGLSSPVTKSFNRGEC
notes: humanized, human IgG1
**Q.** How did the Emax [1] turn out when B1 was run?
**A.** Its Emax is 74400.

B2: M4-H1L1 (antibody, human IgG1, kappa)
heavy: not shown
light: DIQMTQSPSSLSASVGDRVTITCSASSSVFNMNWYQQKPGKSPKLWIYDISKLASGVPSRFSGSGSGTDFTLTISSLQPEDFATYYCQQRSFYPPTFGGGTKVEIKRTVAAPSVFIFPPSDEQLKSGTASVVCLLNNFYPREAKVQWKVDNALQSGNSQESVTEQDSKDSTYSLSSTLTLSKADYEKHKVYACEVTHQGLSSPVTKSFNRGEC
notes: humanized, human IgG1
**Q.** Which results are given for B2?
**A.** Emax [2]: 22400; Emax [3]: 5250; Emax [4]: 3630; EC50 [5]: 5 nM; Emax [5]: 42300

B3: M4H1L1-9-A (antibody, human IgG1, kappa)
heavy: not shown
light: DIQMTQSPSSLSASVGDRVTITCSASSSVFNMNWYQQKPGKSPKLWIYDISKLASGVPSRFSGSGSGTDFTLTISSLQPEDFATYYCQQRSFYPPTFGGGTKVEIKRTVAAPSVFIFPPSDEQLKSGTASVVCLLNNFYPREAKVQWKVDNALQSGNSQESVTEQDSKDSTYSLSSTLTLSKADYEKHKVYACEVTHQGLSSPVTKSFNRGEC
modifications: compound 9-A coupled to reduced cysteines of the antibody (chains and sites not stated), average n=6.6
notes: also called MUC1 monoclonal antibody ADC
**Q.** Which Emax [2] does the source give for B3 here?
**A.** Its Emax is 29200.

**Q.** What about the Emax [4] of the same binder?
**A.** The Emax was 3690.

B4: ChiF4-1 (antibody, human IgG1, kappa, V domains shown)
VH: QIQLQQSGPELVKPGASVKISCKASGYTFTDNYINWVKQRPGQGLEYIGWIYPGSGNNKFNEKFKGKATLTVDTSSRTAFMQLSSLTFEDSAVYFCARDYPFPSYHYGMDYWGQGTSVTVSS
VL: QILLTQSPAIMSASPGERVTITCSASSSVSYIHWFQQKPGTSPKLWIYSTSNLASGVPPRFSGSGSGTSFSLTVSRMEAEDAATYYCQQRSSYPPTFGGGTKLEIKR
notes: murine variable regions on human IgG1 constant regions; also called chimeric antibody of F4-1
**Q.** How did the Emax [6] turn out when B4 was run?
**A.** The Emax was 21500.

B5: F4-1-H1L2 (antibody, human IgG1, kappa, V domains shown)
VH: EVQLVQSGAEVKKPGASVKVSCKASGYTFTDNYINWVRQAPGQRLEYMGWIYPGSGNNKFNEKFKGRVTITVDTSASTAYMELSSLRSEDTAVYYCARDYPFPSYHYGMDYWGQGTTVTVSS
VL: DIQLTQSPSSLSASVGDRVTITCSASSSVSYIHWFQQKPGKAPKLWIYSTSNLASGVPSRFSGSGSGTDFTLTVSSLQPEDFATYYCQQRSSYPPTFGGGTKVEIKR
notes: humanized, human IgG1
**Q.** For B5, which Emax [7] is on record?
**A.** The Emax was 102000.

B6: F4-1-H2L3 (antibody, human IgG1, kappa, V domains shown)
VH: EVQLVQSGAEVKKPGASVKVSCKASGYTFTDNYINWVRQAPGQRLEYIGWIYPGSGNNKFNEKFKGRVTLTVDTSARTAYMELSSLRSEDTAVYYCARDYPFPSYHYGMDYWGQGTTVTVSS
VL: DIQLTQSPSSLSASVGDRVTITCSASSSVSYIHWFQQKPGTSPKLWIYSTSNLASGVPSRFSGSGSGTDFTLTVSSLQPEDFATYYCQQRSSYPPTFGGGTKVEIKR
notes: humanized, human IgG1
**Q.** Which Emax [7] does the source give for B6 here?
**A.** Its Emax is 122000.

B7: M6-H2L2 (antibody, human IgG1, kappa, V domains shown)
VH: EVQLVQSGAEVKKPGASVKVSCKASGYRFIPYWIEWVRQAPGQGLEWMGEILPGTGRTNYNEKFKGRVTFTADTSTNTVYMELSSLRSEDTAVYYCARYGDDTSGGYYAVDYWGQGTTVTVSS
VL: EIVLTQSPATLSLSPGERATLSCRASESVNILGTNLIHWYQQKPGQAPKLLIYHASNLETGIPARFSGSGSRTDFTLTISSLEPEDFAVYYCLQSRKIPWTFGGGTKVEIKR
notes: humanized, human IgG1
**Q.** For B7, which Emax [8] is on record?
**A.** Its Emax is 92700.

B8: M6-H7L2 (antibody, human IgG1, kappa, V domains shown)
VH: EVQLVQSGAEVKKPGASVKVSCKASGYRFIPYWIEWVRERPGHGLEWMGEILPGTGRTNYNEKFKGRVTFTADTSTNTVYMELSSLTNEDTAVYYCARYGEDTSGGYYAVDYWGQGTTVTVSS
VL: EIVLTQSPATLSLSPGERATLSCRASESVNILGTNLIHWYQQKPGQAPKLLIYHASNLETGIPARFSGSGSRTDFTLTISSLEPEDFAVYYCLQSRKIPWTFGGGTKVEIKR
notes: humanized, human IgG1
**Q.** B8 was tested. Which Emax [8] did it give?
**A.** Its Emax is 78400.

B9: M6-H5L3 (antibody, human IgG1, kappa, V domains shown)
VH: EVQLVQSGAEVKKPGASVKVSCKASGYRFIPYWIEWVRERPGHGLEWMGEILPGTGRTNYNEKFKGRVTFTADTSTNTVYMELSSLTSEDTAVYYCARYGEDTSGGYYAVDYWGQGTTVTVSS
VL: DIVMTQSPATLSLSPGERATLSCRASESVNILGTNLIHWYQQKPGQAPKLLIYHASNLETGIPARFSGSGSRTDFTLTISSLEPEDVAVYYCLQSRKIPWTFGGGTKVEIKR
notes: humanized, human IgG1
**Q.** With B9 as the binder, how does the Emax [8] read?
**A.** The Emax was 73000.

B10: M6-H7L3 (antibody, human IgG1, kappa, V domains shown)
VH: EVQLVQSGAEVKKPGASVKVSCKASGYRFIPYWIEWVRERPGHGLEWMGEILPGTGRTNYNEKFKGRVTFTADTSTNTVYMELSSLTNEDTAVYYCARYGEDTSGGYYAVDYWGQGTTVTVSS
VL: DIVMTQSPATLSLSPGERATLSCRASESVNILGTNLIHWYQQKPGQAPKLLIYHASNLETGIPARFSGSGSRTDFTLTISSLEPEDVAVYYCLQSRKIPWTFGGGTKVEIKR
notes: humanized, human IgG1
**Q.** How did the Emax [8] turn out when B10 was run?
**A.** The Emax was 48900.

B11: F4-18-H2L3 (antibody, human IgG1, kappa, V domains shown)
VH: EVQLVQSGAEVKKPGASVKVSCKASGYTFTSYGINWVRQRPGQGLEWIGYIYLGSDYTEYNEKFKGRVTLTSDTSASTAYMELSSLRSEDTAVYYCARSAGSLFAYWGQGTLVTVSS
VL: DIQLTQSPSSLSASVGDRVTITCRASQDIGITLNWLQQKPGKAIKRLIYATSSLDSGVPSRFSGSRSGSDYTLTISSLQPEDFATYYCLQYASSPYTFGGGTKVEIKR
notes: humanized, human IgG1
**Q.** For B11, which Emax [9] is on record?
**A.** Its Emax is 80400.

B12: F4-18-H3L4 (antibody, human IgG1, kappa, V domains shown)
VH: EVQLVQSGAEVVKPGASVKMSCKTSGYTFTSYGINWVRQRPGQGLEWIGYIYLGSDYTEYNEKFKGRVTLTSDTSASTAYMELSSLRSEDTAVYYCARSAGSLFAYWGQGTLVTVSS
VL: DIQLTQSPSSLSASVGDRVTITCRASQDIGITLNWLQQEPGGAIKRLIYATSSLDSGVPKRFSGSRSGSDYTLTISSLQPEDFATYYCLQYASSPYTFGGGTKVEIKR
notes: humanized, human IgG1
**Q.** B12 was tested. Which Emax [9] did it give?
**A.** Its Emax is 73400.

B13: ChiF4-18 (antibody, human IgG1, kappa, V domains shown)
VH: EVQLQQSGAELVRPGSSVKMSCKTSGYTFTSYGINWVKQRPGQGLEWIGYIYLGSDYTEYNEKFKGKATLTSDTTSSTAYMQLSSLTSEDSAIYFCARSAGSLFAYWGQGTLVTVSA
VL: DIQLTQSPSSLSASLGERVSLTCRASQDIGITLNWLQQEPDGTIKRLIYATSSLDSGVPKRFSGSRSGSDYSLTISSLESEDFVDYYCLQYASSPYTFGGGTKLEIKR
notes: murine variable regions on human IgG1 constant regions; also called chimeric antibody of F4-18
**Q.** Which Emax [6] does the source give for B13 here?
**A.** Its Emax is 20900.

B14: ChiM4 (antibody, human IgG1, kappa, V domains shown)
VH: QVQLQQSGAELARPGASVKLSCKASGYSFTTYGVPWVKQRTGQGLEWIGDIYPRSGNTYYNEKFKGKATLTADKSSDTVFMELRSLSSEDSAVYFCAREDYDNYPYALDYWGQGTSVTVSS
VL: EIVLTQSPAIIAASPGEKVTITCSASSSVFNMNWYQQKPGSSPKIWIYDISKLASGVPGRFSGSGSGTSFSLTINSMEAEDVGTYYCQQRSFYPPTFGGGTKVEIKR
notes: murine variable regions on human IgG1 constant regions; also called chimeric antibody of M4
**Q.** With B14 as the binder, how does the Emax [6] read?
**A.** Its Emax is 13200.
